From paper PMC10821591, “Toxoplasma gondii mitochondrial association factor 1b interactome reveals novel binding partners including Ral GTPase accelerating protein α1” (The Journal of Biological Chemistry, 2023)

Molecular target: T1, T. gondii MAF1b (residues 173-443), co-expressed with RalGAPα1(GAP) in insect cells (Toxoplasma gondii, UniProt A0A140H546 173-443)
T1 construct: MAF1b of Toxoplasma gondii, structured C-terminal domain, residues 173-443; The results speak of nickel purification of MAF1b, the methods of streptactin purification and TEV cleavage of RalGAP (±MAF1b)
T1 sequence: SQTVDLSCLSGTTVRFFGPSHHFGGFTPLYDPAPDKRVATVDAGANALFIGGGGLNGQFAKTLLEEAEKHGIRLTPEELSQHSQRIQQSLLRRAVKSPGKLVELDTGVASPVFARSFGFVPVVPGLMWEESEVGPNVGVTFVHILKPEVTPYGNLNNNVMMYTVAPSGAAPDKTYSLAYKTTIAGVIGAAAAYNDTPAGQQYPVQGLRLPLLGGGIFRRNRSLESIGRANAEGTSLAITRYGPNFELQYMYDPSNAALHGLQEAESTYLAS
Experiment: SEC; RalGAPα1(GAP) co-expressed with MAF1b_WT in T. ni cells, co-purified by affinity chromatography, TEV cleavage, then Superdex 75 16/600 in 20 mM HEPES pH 7.5, 150 mM NaCl, 1 mM DTT; fractions on SDS-PAGE
Conditions: both partners purified

B1: GAP domain of human Ral GTPase Accelerating Protein α1 (residues 1807-1988) (domain or fragment)
chain: not shown
notes: Human RalGAPα1, putative GAP domain, amino acids T1807-P1988 of NP_055805.1; also called RalGAPα1(GAP); RalGAP; not shown: twin-strep-II, N-terminal, cleaved
- binding result: binds
